Tests used:
[1] = system: Bcl-xL and cFlip/FLAME-1 in bladder tumor cells (RT112); assay: Western blot of apoptosis-related proteins in RT112 cells; assay type: cell-based, human
Procedure: The observation that tumor cells treated with IL-4 display a reduced sensitivity to chemotherapeutic drugs led us to investigate whether this cytokine would influence the expression of apoptosis regulatory genes. Western blot analysis of apoptosis-related proteins was performed on cancer cell lines treated for 48 hours with IL-4 as compared to untreated or IL-2-treated controls. […] The increased expression of cFlip/FLAME-1 prompted us to investigate if IL-4 could protect tumor cells from death receptor stimulation. CD95 ligand (CD95L) is one of the major effector molecules of cytotoxic T lymphocytes and NK cells.
Cell pellets were washed twice with cold PBS and lysed on ice for 30 minutes with 1% NP40 lysis buffer (20 mM Tris-HCl pH 7.2, 200 mM NaCl, 1% NP40) in the presence of 1 mM phenylmethylsulphonyl fluoride (PMSF) and 2 μg/ml each of aprotinin, leupeptin and pepstatin. Cell debris was removed by centrifugation at 13,000 rpm for 10 minutes at 4° C. Lysate concentration was determined using the Bio-Rad protein assay (Bio-Rad Laboratories, Richmond, Calif.). Aliquots of cell extracts containing 30 μg of total protein were resolved on 10% or 12% SDS-PAGE and transferred to a Hybond-C extra nitrocellulose membrane (Amersham Pharmacia Biotech, Piscataway, N.J.). […]

[2] = system: Bcl-xL and Bcl-2 in normal thyrocytes; assay: Immunoblot of Bcl-xL and Bcl-2 in normal thyrocytes cultured with cytokines; assay type: cell-based, human; conditions: after 48 hours of culture; IL-4 20 ng/ml, IL-10 40 ng/ml, IFN-γ 1000 IU/ml
Procedure: Thyroid cell purification and culture. Thyroid tissues from normal, PTC, FTC and UTC were digested for 2 hours with collagenase (1.5 mg/ml) (Gibco BRL, Grand Island, N.Y.) and hyaluronidase (20 μg/ml) (Sigma Chemical Co., St. Louis, Mo.) in DMEM. Thyrocytes were purified from the digested tissues by hematopoietic cell depletion with anti-CD45-coupled beads (Dynal, Wirral Merseyside, U.K.) and 12 hours of flask adherence, which allowed removal of other cells. After additional 12 hours of culture, thyroid cells were allowed to grow in monolayer for the immunocytochemistry or detached with trypsin+EDTA following exposure to cytokines or chemotherapeutic agents for functional and protein analyses. Thyrocytes were cultured in standard DMEM with 10% heat-inactivated FBS (Hyclone Laboratories, Logan, UK) in the presence or absence of human recombinant IL-4 (20 ng/ml), IL-10 (40 ng/ml) or IFN-γ (1000 IU/ml) (uroclone, Paignton, UK) and cisplatin (300 ng/ml), doxorubicin (5 μM) and taxol (5 μM) (Sigma) or TRAIL (Alexis, San Diego, USA). For the IL-4 and IL-10 neutralization, thyroid cancer cells were pretreated, for 48 hours, with anti-human IL-4 and IL-10 neutralizing antibodies (1 μg/ml) (R&D systems, MN, USA).
Protein isolation and Western Blotting. Cell pellets were resuspended in ice-cold NP-40 lysis buffer (50 mM Tris-HCl, pH 7.5, 150 mM NaCl, 1 mM EGTA, 1% NP-40) containing 1 mM PMSF, leupeptin (1 μg/ml), pepstatin (1 μg/ml) and aprotirni (1 μg/ml). Each lysate (30 μg) was fractioned on 12% SDS-polyacrylamide gels and blotted to nitrocellulose (Hybond, Amersham, Little Chalfont Buckinghamshire England, UK). Membrane was blocked for 1 h with nonfat dry milk in TBS containing 0.05% Tween 20 and successively incubated for 2 h with Abs specific to actin (Ab-1, mouse IgM, Calbiochem, Darmstadt, Germany), Bcl-2 (124, mouse IgG1, Upstate Biotechnology Inc.), Bcl-xL (H-5, mouse IgGl, Santa Cniz Biotechnology), IL-4 (3007.11, mouse IgG1, R&D Systems, Inc., Minneapolis, USA), IL-10 (23738.111, mouse IgG2b, R&D Systems), IFN-γ (25718.111, mouse IgG2a, R&D Systems). […]

B1: IL-4: human recombinant IL-4 (protein, UniProt P05112 25-153, looked up)
Interleukin-4: HKCDITLQEIIKTLNSLTEQKTLCTELTVTDIFAASKNTTEKETFCRAATVLRQFYSHHEKDTRCLGATAQQFHRHKQLIRFLKRLDRNLWGLAGLNSCPVKEANQSTLENFLERLKTIMREKYSKCSS
levels of caspases and other pro- and anti-apoptotic Bcl-2 family members ([1]; 48 hours with IL-4): remained unchanged | levels of Bcl-xL and cFlip/FLAME-1 ([1]; 48 hours with IL-4, compared to untreated or IL-2-treated controls): increased | Bcl-xL and Bcl-2 expression in normal thyrocytes [2]: upregulated

Source: US7645449B2, “Sensitizing cells for apoptosis by selectively blocking cytokines” (priority 2003, dated 2010)
